Laboratory results published in US20220380459A1 (DRAGONFLY THERAPEUTICS, published 2022).
Like-named read-outs stand apart in the source and are kept apart here.

Assays:
Experiment in all cases: SPR, Fab captured, 37C
C domain of human CD33 = target: T1, C domain of human CD33 (human, UniProt P20138 140-259, limits assumed)
T1 construct: recombinant C domain
Description: (§1) Kinetics and affinity of a series of Fab fragments of anti-CD33 antibodies with different CD33 variants (human CD33 ECD, cyno CD33 ECD, V-domain of human CD33, C-domain or human CD33 and selected CD33 SNPs) were assessed by surface plasmon resonance using Biacore 8K instrument (GE Healthcare). Anti-Fab antibody was immobilized on a CMS chip using standard amine coupling chemistry. CD33 FABs were captured on the anti-Fab chip at a density of ˜100 RU. Solutions containing different concentrations of soluble monomeric CD33 or its domains were injected over the captured FABs and control surfaces at 30 μl/min at 37° C. Surfaces were regenerated between cycles by quick injection of 10 mM glycine, pH 1.8. To obtain kinetic rate constants double-referenced data were fit to a 1:1 interaction model using Biacore 8K Evaluation software (GE Healthcare). The equilibrium binding constant KD was determined by the ratio of binding rate constants kd/kₐ.
The binding interface between the Fab fragment of each CD33 antibody to CD33 was mapped.

[1] = target: T2, human CD33 extracellular domain (human, UniProt P20138 18-259)
T2 construct: soluble monomeric ECD; also called human CD33 ECD; hCD33
Description: as §1
(§2) Affinity of 29 Fab fragments binding to human and cyno CD33 ECD were assayed by Biacore analysis.

[2] = target: T3, cyno CD33 extracellular domain (Cynomolgus/Rhesus (cyno))
T3 construct: soluble monomeric ECD; also called cyno CD33 ECD
Description: as §1, §2

[3] = target: T2, human CD33 extracellular domain; remark: listed apart in the source
V domain of human CD33 [4] = target: T4, V domain of human CD33 (human, UniProt P20138 18-139, limits assumed)
T4 construct: recombinant, fully glycosylated V domain; also called Human CD33 V domain

V domain of human CD33 [5] = target: T4, V domain of human CD33; remark: listed apart in the source
Description: as §1
(§3) The ability of anti-CD33 antibodies to recognize glycosylated CD33 was assayed. […] De-glycosylation status was confirmed by a shift on SDS-PAGE and MS.

[6] = target: T5, deglycosylated V domain of human CD33 (human, UniProt P20138 18-139, limits assumed, N-glycans removed by PNGase)
T5 construct: V domain deglycosylated by PNGase before testing; also called deglycosylated V CD33
Description: as §1, §3

[7] = target: T2, human CD33 extracellular domain; remark: listed apart in the source
Description: as §1, §2

[8] = target: T2, human CD33 extracellular domain; remark: listed apart in the source
Description: as §1, §2

Row | Binder | binding result (C domain of human CD33) | Kd [1] [nM] | koff [1] [s⁻¹] | kon [1] [M⁻¹ s⁻¹] | Kd [3] [nM] | koff [3] [s⁻¹] | kon [3] [M⁻¹ s⁻¹] | Kd (V domain of human CD33 [4]) [nM] | koff (V domain of human CD33 [4]) [s⁻¹] | kon (V domain of human CD33 [4]) [M⁻¹ s⁻¹] | Kd (V domain of human CD33 [5]) [nM] | koff (V domain of human CD33 [5]) [s⁻¹] | kon (V domain of human CD33 [5]) [M⁻¹ s⁻¹] | Kd [6] [nM] | koff [6] [s⁻¹] | kon [6] [M⁻¹ s⁻¹] | Kd [7] [nM] | koff [7] [s⁻¹] | kon [7] [M⁻¹ s⁻¹] | binding result [2] | also measured
1 | ADI-10159 Fab (Fab, V domains shown, Fab fragment; also called Ab1; G59) VH: EVQLVESGGGLVQPGGSLRLSCAASGFTFSSYGMSWVRQAPGKGLEWVANIKQDGSEKYYVDSVKGRFTISRDNAKNSLYLQMNSLRAEDTAVYYCAREGGPYYDSSGYFVYYGMDVWGQGTTVTVSS VL: DIQMTQSPSTLSASVGDRVTITCRASQSISSWLAWYQQKPGKAPKLLIYDASSLESGVPSRFSGSGSGTEFTLTISSLQPDDFATYYCQQYESFPTFGGGTKVEIK | no binding | 4.53 | 0.00195 | 429000 | 4.53 | 0.00195 | 429000 | 5.56 | 0.005 | 905000 | 5.56 | 0.005 | 905000 | 12.3 | 0.012 | 978000 | 4.53 | 0.00195 | 429000 | – | Kd [2]: 74.9 nM; koff [2]: 0.0436 s⁻¹; kon [2]: 528000 M⁻¹ s⁻¹
2 | ADI-10157 Fab (Fab, V domains shown, Fab fragment; also called Ab13) VH: QVQLQESGPGLVKPSETLSLTCTVSGGSISSYYWSWIRQPPGKGLEWIGSIYYSGSTNYNPSLKSRVTISVDTSKNQFSLKLSSVTAADTAVYYCARVGGVYSTIETYGMDVWGQGTTVTVSS VL: EIVMTQSPATLSVSPGERATLSCRASQSVSSNLAWYQQKPGQAPRLLIYGASTRATGIPARFSGSGSGTEFTLTISSLQSEDFAVYYCQQYTVYPPTFGGGTKVEIK | no binding | 2.69 | 0.0076 | 2.82e+06 | 2.69 | 0.0076 | 2.82e+06 | 134 | 0.0151 | 112000 | 134 | 0.0151 | 112000 | 63.8 | 0.0261 | 411000 | 2.69 | 0.0076 | 2.82e+06 | no binding (tested: 100 nM) | Kd [8]: 2.69 nM; koff [8]: 0.0076 s⁻¹
3 | ADI-11830 Fab (Fab, V domains shown, Fab fragment; also called Ab9) VH: EVQLVESGGGLVQPGGSLRLSCAASGFTFSSYWMSWVRQAPGKGLEWVANINTDGSEVYYVDSVKGRFTISRDNAKNSLYLQMNSLRAEDTAVYYCARDVGPGIAYQGHFDYWGQGTLVTVSS VL: DIQMTQSPSSLSASVGDRVTITCRASQVIYSYLNWYQQKPGKAPKLLIYAASSLKSGVPSRFSGSGSGTDFTLTISSLQPEDFATYYCQQVYDTPLTFGGGTKVEIK | no binding | 2.75 | 0.00547 | 1.99e+06 | 2.75 | 0.00547 | 1.99e+06 | 4.5 | 0.0299 | 6.67e+06 | 4.5 | 0.0299 | 6.67e+06 | 3.95 | 0.0269 | 6.8e+06 | 2.75 | 0.00547 | 1.99e+06 | – | Kd [2]: 27.8 nM; koff [2]: 0.0364 s⁻¹; kon [2]: 1.34e+06 M⁻¹ s⁻¹
4 | ADI-10163 Fab (Fab, V domains shown, Fab fragment; also called Ab17) VH: QVQLQESGPGLVKPSQTLSLTCTVSGGSISSGGYYWSWIRQHPGKGLEWIGSIYYSGSTYYNPSLKSRVTISVDTSKNQFSLKLSSVTAADTAVYYCARDRLDYSYNYGMDVWGQGTTVTVSS VL: DIQMTQSPSSLSASVGDRVTITCRASQSISSYLNWYQQKPGKAPKLLIYGASSLQSGVPSRFSGSGSGTDFTLTISSLQPEDFATYYCQQVYSAPFTFGGGTKVEIK | no binding | 53.5 | – | – | 53.5 | – | – | – | – | – | – | – | – | 152 | – | – | 53.5 | – | – | no binding (tested: 100 nM) | Kd [8]: 53.5 nM
5 | ADI-11826 Fab (Fab, V domains shown, Fab fragment; also called Ab26) VH: EVQLVESGGGLVQPGGSLRLSCAASGFTFPGYWMSWVRQAPGKGLEWVANINQDGSEVYYVDSVKGRFTISRDNAKNSLYLQMNSLRAEDTAVYYCAREANYYGNVGDDYWGQGTLVTVSS VL: DIQMTQSPSSLSASVGDRVTITCRASQSIYNYLNWYQQKPGKAPKLLIYAASSTQSGVPSRFSGSGSGTDFTLTISSLQPEDFATYYCQQAFHVPITFGGGTKVEIK | no binding | 2.63 | 0.00463 | 1.76e+06 | 2.63 | 0.00463 | 1.76e+06 | 4.38 | 0.0225 | 5.12e+06 | 4.38 | 0.0225 | 5.12e+06 | 3.69 | 0.0198 | 5.37e+06 | 2.63 | 0.00463 | 1.76e+06 | no binding (tested: 100 nM) | Kd [8]: 2.63 nM; koff [8]: 0.00463 s⁻¹
6 | ADI-11812 Fab (Fab, V domains shown, Fab fragment; also called Ab24) VH: QVQLVQSGAEVKKPGASVKVSCKASGYTFEIYYMHWVRQAPGQGLEWMGIINPSSGSTVYAQKFQGRVTMTRDTSTSTVYMELSSLRSEDTAVYYCARGAGYDDEDMDVWGKGTTVTVSS VL: DIQMTQSPSSVSASVGDRVTITCRASQGIDSWLAWYQQKPGKAPKLLIYAASSLQSGVPSRFSGSGSGTDFTLTISSLQPEDFATYYCQQAHSYPLTFGGGTKVEIK | no binding | 1.23 | 0.000486 | 396000 | 1.23 | 0.000486 | 396000 | – | – | – | – | – | – | – | – | – | 1.23 | 0.000486 | 396000 | no binding (tested: 100 nM) | binding result (V domain of human CD33 [4]): no binding; binding result [6]: no binding; Kd [8]: 1.23 nM; koff [8]: 0.000486 s⁻¹
7 | ADI-11802 Fab (Fab, V domains shown, Fab fragment; also called Ab23) VH: QVQLVQSGAEVKKPGASVKVSCKASGYTFSGYYMHWVRQAPGQGLEWMGMINPYGGSTRYAQKFQGRVTMTRDTSTSTVYMELSSLRSEDTAVYYCAREAADGFVGERYFDLWGRGTLVTVSS VL: not shown | no binding | 3.14 | 0.00154 | 490000 | 3.14 | 0.00154 | 490000 | 3.2 | 0.00435 | 1.34e+06 | 3.2 | 0.00435 | 1.34e+06 | 2.65 | 0.00417 | 1.57e+06 | 3.14 | 0.00154 | 490000 | no binding (tested: 100 nM) | Kd [8]: 3.14 nM; koff [8]: 0.00154 s⁻¹
8 | ADI-10173 Fab (Fab, V domains shown, Fab fragment; also called Ab22) VH: QVQLVQSGAEVKKPGASVKVSCKASGYTFTSYYMHWVRQAPGQGLEWMGIINPSGGSTTYAQKFQGRVTMTRDTSTSTVYMELSSLRSEDTAVYYCAREAADGFVGERYFDLWGRGTLVTVSS VL: not shown | no binding | 58.8 | – | – | 58.8 | – | – | – | – | – | – | – | – | 200 | – | – | 58.8 | – | – | no binding (tested: 100 nM) | Kd [8]: 58.8 nM
9 | ADI-10177 Fab (Fab, V domains shown, Fab fragment; also called Ab2) VH: EVQLVESGGGLVQPGGSLRLSCAASGFTFSSYWMSWVRQAPGKGLEWVANIKQDGSEKYYVDSVKGRFTISRDNAKNSLYLQMNSLRAEDTAVYYCARPLNAGELDVWGQGTMVTVSS VL: DIQMTQSPSTLSASVGDRVTITCRASQSISSWLAWYQQKPGKAPKLLIYEASSLESGVPSRFSGSGSGTEFTLTISSLQPDDFATYYCQQLESYPLTFGGGTKVEIK | no binding | 11.4 | 0.00636 | 558000 | 11.4 | 0.00636 | 558000 | 54.8 | 0.0857 | 1.56e+06 | 54.8 | 0.0857 | 1.56e+06 | 38.2 | 0.0701 | 1.88e+06 | 11.4 | 0.00636 | 558000 | – | Kd [2]: 21.4 nM; koff [2]: 0.00754 s⁻¹; kon [2]: 353000 M⁻¹ s⁻¹
10 | ADI-11835 Fab (Fab, V domains shown, Fab fragment; also called Ab10; I35) VH: QLQLQESGPGLVKPSETLSLTCTVSGGSISSTDYYWGWIRQPPGKGLEWIGSIGYSGTYYNPSLKSRVTISVDTSKNQFSLKLSSVTAADTAVYYCARETAHDVHGMDVWGQGTTVTVSS VL: EIVLTQSPATLSLSPGERATLSCRASHSVYSYLAWYQQKPGQAPRLLIYDASNRATGIPARFSGSGSGTDFTLTISSLEPEDFAVYYCQQYDNLPTFGGGTKVEIK | no binding | 0.53 | 0.00143 | 2.6e+06 | 0.53 | 0.00143 | 2.6e+06 | 1.14 | 0.00868 | 7.6e+06 | 1.14 | 0.00868 | 7.6e+06 | 0.98 | 0.00779 | 7.94e+06 | 0.53 | 0.00143 | 2.6e+06 | – | Kd [2]: 6.86 nM; koff [2]: 0.0189 s⁻¹; kon [2]: 2.76e+06 M⁻¹ s⁻¹
